Source: patent US20230295310A1 (ABCELLERA BIOLOGICS, published 2023)
Numbering of substitutions follows the chain as printed. Values belong to the binder of their own block, whether it stands above or below them.

Legend:
[1] = target: T1, cynomolgus monkey CD3 expressed on cyno primary T cells (cynomolgus monkey, UniProt Q95LI5 22-198; Q95LI8 22-171; Q95LI7 23-181); assay: flow cytometry, cyno primary T cells
T1 construct: whole, on cells; CD3 complex on purified cynomolgus monkey CD3 pan T cells; also called cyno CD3
Method in brief: (§1)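 25 nM Ab in FACS buffer (PBS+2% FBS), 30 min at 4° C on CD3+ cells; flow cytometry MFI normalized to isotype = FOI; cutoff ≥10 for positive.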

[2] = target: T2, human CD3 expressed on cells (Jurkat cells; human primary T cells) (human, UniProt P07766 23-207; P04234 22-171; P09693 23-182); assay: flow cytometry, 25 nM, human primary T cells
T2 construct: whole, on cells
Method in brief: as §1

[3] = target: T2, human CD3 expressed on cells (Jurkat …); assay: flow cytometry, 25 nM, Jurkat cells
Method in brief: as §1

T1 sequence (Q95LI5 22-198, chain 1 of 3): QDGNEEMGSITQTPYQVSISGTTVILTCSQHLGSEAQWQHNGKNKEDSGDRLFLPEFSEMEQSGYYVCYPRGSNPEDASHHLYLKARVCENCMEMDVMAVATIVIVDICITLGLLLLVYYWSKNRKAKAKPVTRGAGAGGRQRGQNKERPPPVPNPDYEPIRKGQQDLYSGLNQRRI
T1 sequence (Q95LI8 22-171, chain 2 of 3): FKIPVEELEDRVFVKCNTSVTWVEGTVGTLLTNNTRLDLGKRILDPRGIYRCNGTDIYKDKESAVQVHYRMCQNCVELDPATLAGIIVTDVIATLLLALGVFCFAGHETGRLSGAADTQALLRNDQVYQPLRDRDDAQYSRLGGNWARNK
T1 sequence (Q95LI7 23-181, chain 3 of 3): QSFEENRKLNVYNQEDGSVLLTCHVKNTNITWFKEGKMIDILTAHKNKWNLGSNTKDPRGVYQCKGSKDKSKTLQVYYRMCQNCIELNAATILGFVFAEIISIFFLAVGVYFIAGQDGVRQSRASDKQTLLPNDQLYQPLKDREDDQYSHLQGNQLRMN
T2 sequence (P07766 23-207, chain 1 of 3): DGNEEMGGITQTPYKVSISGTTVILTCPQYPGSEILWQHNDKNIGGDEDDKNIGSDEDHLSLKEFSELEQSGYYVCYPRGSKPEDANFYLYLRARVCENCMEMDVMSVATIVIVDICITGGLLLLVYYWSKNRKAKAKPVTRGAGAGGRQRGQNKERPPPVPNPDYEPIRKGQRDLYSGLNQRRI
T2 sequence (P04234 22-171, chain 2 of 3): as the sequence (Q95LI8 22-171, chain 2 of 3) above, with V5I, K15N, V20I, T32S, N33D, N34I, A64T, N74S, L83V, R141H counted along it
T2 sequence (P09693 23-182, chain 3 of 3): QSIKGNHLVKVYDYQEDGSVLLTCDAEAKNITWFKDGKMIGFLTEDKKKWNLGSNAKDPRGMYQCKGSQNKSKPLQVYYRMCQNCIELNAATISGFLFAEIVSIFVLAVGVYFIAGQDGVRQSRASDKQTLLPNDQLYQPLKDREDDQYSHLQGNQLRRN

B3: mAb 276 (antibody, V domains shown)
VH: EVQLVESGGGLVQPGGSLRLSCAASGIPFSTYSMNWVRQAPGKGLEWVSYISGSSRTIYYADSVKGRFTISRDNAKKLLFLQMNSLRDEDTAVYYCAREGDYYDSSGWAYWGQGTLVTVSS
VL: DIQMTQSPSSLSASVGDRVTITCRASQNIYKYLNWYEQKPGRAPKLLIYTTSNLQSGVPSRFSGSGSGTAFTLIISSLQPEDFATYYCQQSYGSPYTFGQGTKLEIK
notes: VH/VL only
binding result [1]: no binding (tested: FOI <10 (FOI >=10 = positive); 25 nM)
Binding (FOI) [2]: 149 FOI
Binding (FOI) [3]: 156 FOI

B4: mAb 237 (antibody, V domains shown)
VH: EVQLLESGGDLVQPGGSLRLTCAASGFTFRSYAMNWVRQAPGKGLEWVSTISSRGDTTNYADSVKGRFTISRDTSKNTLYLQMDNLRADDTAVYYCSKMFSYYYYYMDVWGKGTTVTVSS
VL: SYELTQPLSVSVALGQTARITCGGNNIGSKDVHWYQQKPGQAPVLVIYRDSNRPSGIPERFSGSNSGNTATLTISRAQAGDEADYYCQVWDSRTAVFGGGTQLTAL
notes: VH/VL only
binding result [1]: no binding (tested: FOI <10 (FOI >=10 = positive); 25 nM)
Binding (FOI) [2]: 293 FOI
Binding (FOI) [3]: 217 FOI

B5: mAb 264 (antibody, V domains shown)
VH: EVQLLESGGGLVQPGGSLRLSCVASGFTFRSSSMTWVRQAPGKGLEWVSGIRGSGGRTYDAESVKGRFTISRDNSKNTLYLQMNSLRAEDTAEYYCAKLYDYYNDYMDVWGKGTTVTVSS
VL: B4 VL with D31N, R93S
notes: VH/VL only
binding result [1]: no binding (tested: FOI <10 (FOI >=10 = positive); 25 nM)
Binding (FOI) [2]: 220 FOI
Binding (FOI) [3]: 174 FOI

B6: mAb 251 (antibody, V domains shown)
VH: EVQILESGGGLVQPGGSLRLSCVASGFTFRSYVMSWVRRAPGRGLEWVSGISASGGNTYYADSVKGRFTISRDNSKNTLFLQMNGLRAEDTAVYYCAKLFSYYYYFMDVWGKGTTVTVSS
VL: B4 VL with R76G, S92R
notes: VH/VL only
binding result [1]: no binding (tested: FOI <10 (FOI >=10 = positive); 25 nM)
Binding (FOI) [2]: 297 FOI
Binding (FOI) [3]: 215 FOI

B9: mAb 238 (antibody, V domains shown)
VH: B4 VH
VL: B4 VL with R93S
notes: VH/VL only
binding result [1]: no binding (tested: FOI <10 (FOI >=10 = positive); 25 nM)
Binding (FOI) [2]: 266 FOI
Binding (FOI) [3]: 185 FOI

B15: mAb 240 (antibody, V domains shown)
VH: QGKLVESGGGVVQPGRSLRLSCVASGFTFSGYGMHWVRQAPNKGLEWVAIIYYDGKNKYYADSVKGRFTISRDNSKNTLYLQLNSLRAEDTAVYYCVRGPGYNWFDPWGQGTLVTVSS
VL: EIVLTQSPDFQSVTPKEKVTITCRASQNIGSSLHWYQQKPDQSPKLLIKHASQSFSGVPSRFSGSGSGTDFTLTINSLEAEDAATYYCHQSSSLPYTFGQGTKLEIK
notes: VH/VL only
binding result [1]: no binding (tested: FOI <10 (FOI >=10 = positive); 25 nM)
Binding (FOI) [2]: 216 FOI
Binding (FOI) [3]: 177 FOI

B16: mAb 248 (antibody, V domains shown)
VH: B15 VH with G2V, N42G, A61V, P107H, S117A
VL: B15 VL with N28S, H50Y
notes: VH/VL only
binding result [1]: no binding (tested: FOI <10 (FOI >=10 = positive); 25 nM)
Binding (FOI) [2]: 203 FOI
Binding (FOI) [3]: 174 FOI

B17: mAb 256 (antibody, V domains shown)
VH: QVQLQQSGPGLVKPSQTLSLTCAISGDSVSSNYASWNWIRQSPSRGLEWLGRTYYRSKWYNDFAVSVKSRVTINADTSKNQFSLHLSSVTPEDTAIYFCAREANGRGYFYYMDVWGKGTTVTVSS
VL: EIVLTQSPDFQSVTPKEKVTITCRASQSIGSSLHWYQQKPVQSPKLLIKYASQSISGVPSRFSGSGSGTVFTLTINSLEAEDAAAYFCHQSSGSPHTFGGGTKVEIK
notes: VH/VL only
binding result [1]: no binding (tested: FOI <10 (FOI >=10 = positive); 25 nM)
Binding (FOI) [2]: 73 FOI
Binding (FOI) [3]: 61.5 FOI

B19: mAb 257 (antibody, V domains shown)
VH: B17 VH with K68R
VL: B17 VL with V41D
notes: VH/VL only; the printed VH holds a letter U
binding result [1]: no binding (tested: FOI <10 (FOI >=10 = positive); 25 nM)
Binding (FOI) [2]: 77.7 FOI
Binding (FOI) [3]: 62.3 FOI

More lines, main results first:

Binding (FOI) [2]: 128 FOI
Binding (FOI) [3]: 216 FOI
B1: mAb 283 (antibody, V domains shown)
VH: QVHLVQSGAEVKKPGASVRVSCKASGYTFTGYYIHWLRQAPGQGLEWLGWINPNSGGTNYSQKFRGRVTMTRDTSISTAYMELSRLRSDDTAVYYCARDKVWEQQLVGGFDYWGQGTLVTVSS
VL: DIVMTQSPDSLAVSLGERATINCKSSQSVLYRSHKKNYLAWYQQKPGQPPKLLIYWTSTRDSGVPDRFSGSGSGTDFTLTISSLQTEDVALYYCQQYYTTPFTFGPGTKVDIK
notes: VH/VL only
binding result [1]: no binding (tested: FOI <10 (FOI >=10 = positive); 25 nM)

Binding (FOI) [2]: 109 FOI
Binding (FOI) [3]: 125 FOI
B2: mAb 250 (antibody, V domains shown)
VH: QVQLVESGGGVVQPGRSLRLSCAASGFTFSTYGMHWVRQAPGKGLEWVAVLWSDGRSKYYADSVQGRFTISRDNSKNTLFLQMSSLRAEDTAVYYCAREPYYDFWSGYYTGYMDVWGKGTTVTVSS
VL: DIQMTQSPSSLSASVGDRVTITCRASQGIRNDLGWYQQKPGKAPKRLIYAASSLQGGVPSRFSGSGSGTEFTLTISSLQPEDFATYYCLQHNSYPRTFGQGTKVEIK
notes: VH/VL only
binding result [1]: no binding (tested: FOI <10 (FOI >=10 = positive); 25 nM)

Binding (FOI) [2]: 248 FOI
Binding (FOI) [3]: 188 FOI
B7: mAb 263 (antibody, V domains shown)
VH: EVQLLESGGGLVQPGGSLRLSCTPSGITFNNYAMTWVRQAPGKGLEWVSGISVSGGSTYYADSVMGRFTISRDSSKTLYLQMNSLRAEDTAVYYCAKFHSHYYYYMDVWGKGTTVTVSS
VL: B4 VL with S92R
notes: VH/VL only
binding result [1]: no binding (tested: FOI <10 (FOI >=10 = positive); 25 nM)

Binding (FOI) [2]: 229 FOI
Binding (FOI) [3]: 188 FOI
B8: mAb 261 (antibody, V domains shown)
VH: EVQLLESGGGFMQPGGSLRLSCAVSGFTFRTSSMAWVRQAPGKGLEWVSGIRGSGGRTYDAESVKGRFTISRDISKNTLYLQMNNLRAEDTAEYYCAKLYDYYNDFMDVWGKGTTVIVSA
VL: B4 VL with D31N, R93S
notes: VH/VL only
binding result [1]: no binding (tested: FOI <10 (FOI >=10 = positive); 25 nM)

Binding (FOI) [2]: 270 FOI
Binding (FOI) [3]: 184 FOI
B10: mAb 252 (antibody, V domains shown)
VH: B6 VH with A53T
VL: B4 VL with R76G, S92R
notes: VH/VL only
binding result [1]: no binding (tested: FOI <10 (FOI >=10 = positive); 25 nM)

Binding (FOI) [2]: 214 FOI
Binding (FOI) [3]: 169 FOI
B11: mAb 259 (antibody, V domains shown)
VH: B5 VH with Q3L, V23A, N74I, L86V
VL: B4 VL with D31N, R93S
notes: VH/VL only
binding result [1]: no binding (tested: FOI <10 (FOI >=10 = positive); 25 nM)

Binding (FOI) [2]: 219 FOI
Binding (FOI) [3]: 165 FOI
B12: mAb 262 (antibody, V domains shown)
VH: B5 VH with Q3R, V23A, T35A, A40D, S49T, E62D
VL: B4 VL with D31N, R93S
notes: VH/VL only
binding result [1]: no binding (tested: FOI <10 (FOI >=10 = positive); 25 nM)

Binding (FOI) [2]: 219 FOI
Binding (FOI) [3]: 178 FOI
B13: mAb 260 (antibody, V domains shown)
VH: B5 VH with T35A, T69I, N74T, A88G, Y95F
VL: B4 VL with D31N, R93S
notes: VH/VL only
binding result [1]: no binding (tested: FOI <10 (FOI >=10 = positive); 25 nM)

Binding (FOI) [2]: 250 FOI
Binding (FOI) [3]: 180 FOI
B14: mAb 229 (antibody, V domains shown)
VH: QEQLVESGGGVVQPGRSLRLSCAASGFTFSSYGMHWVRQAPGKGLEWVAIIYYNGKKKDYADSVKGRFTISRDNSKNTLYLQMNSLRAEDTAVYYCARGLGYNWFDPWGQGTLVTVSS
VL: B15 VL with N28S, H50Y
notes: VH/VL only
binding result [1]: no binding (tested: FOI <10 (FOI >=10 = positive); 25 nM)

Binding (FOI) [2]: 113 FOI
Binding (FOI) [3]: 147 FOI
B18: mAb 258 (antibody, V domains shown)
VH: EVQLLESGGGLVQPGGSLRLSCAASGFTFSNYAMNWVRQAPGKGLEWVSVISNSGGTRLYVDSVKGRFTISRDNSKNTLYLQMSSLRAADTAVYYCAKDAAAALYYYYFYYMDVWGKGTTVTVSS
VL: B15 VL with N28S, H50Y
notes: VH/VL only
binding result [1]: no binding (tested: FOI <10 (FOI >=10 = positive); 25 nM)

Binding (FOI) [2]: 88.8 FOI
Binding (FOI) [3]: 61.3 FOI
B20: mAb 267 (antibody, V domains shown)
VH: B17 VH with V29I, V71I, T72I, A75P, K79R, S87N, F98Y
VL: B17 VL with V41D, S65R, V70D
notes: VH/VL only
binding result [1]: no binding (tested: FOI <10 (FOI >=10 = positive); 25 nM)

Binding (FOI) [2]: 71.9 FOI
Binding (FOI) [3]: 85 FOI
B21: mAb 266 (antibody, V domains shown)
VH: B17 VH with N61I, V71L, S87R
VL: B17 VL with V41D
notes: VH/VL only
binding result [1]: no binding (tested: FOI <10 (FOI >=10 = positive); 25 nM)

Binding (FOI) [2]: 198 FOI
Binding (FOI) [3]: 162 FOI
B22: mAb 255 (antibody, V domains shown)
VH: B17 VH with L4V, N32K, V71I
VL: B17 VL with V41D
notes: VH/VL only
binding result [1]: no binding (tested: FOI <10 (FOI >=10 = positive); 25 nM)
